Measured values as given in the supplement of paper PMC10567573.

B1: IKZF1 (parent)
chain: YHSQDRYEFSSHITRGEHRFHMS

Variants of: B1
Assay: protein stability index of a GFP-peptide fusion (GPS, HEK-293T) (PSI 1-6); higher = more stable
Settings: c terminus: native
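Also: lentivirally expressed fusions sorted by FACS into six bins by GFP to DsRed ratio, PSI derived from sequencing read proportions per bin multiplied by bin number.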

Q: Which protein stability index does the source give for AHSQDRYEFSSHITRGEHRFHMS [Y1A] here?
A: 3.73

Q: For CHSQDRYEFSSHITRGEHRFHMS [Y1C], which protein stability index is on record?
A: 3.03

Q: With DHSQDRYEFSSHITRGEHRFHMS [Y1D] as the variant, how does the protein stability index read?
A: 4.05

Q: With EHSQDRYEFSSHITRGEHRFHMS [Y1E] as the variant, how does the protein stability index read?
A: 4

Q: Which protein stability index does the source give for FHSQDRYEFSSHITRGEHRFHMS [Y1F] here?
A: 1.73

Q: For GHSQDRYEFSSHITRGEHRFHMS [Y1G], which protein stability index is on record?
A: 3.97

Q: For HHSQDRYEFSSHITRGEHRFHMS [Y1H], which protein stability index is on record?
A: 3.76

Q: For IHSQDRYEFSSHITRGEHRFHMS [Y1I], which protein stability index is on record?
A: 3.35

Q: Which protein stability index does the source give for KHSQDRYEFSSHITRGEHRFHMS [Y1K] here?
A: 2.12

Q: Which protein stability index does the source give for LHSQDRYEFSSHITRGEHRFHMS [Y1L] here?
A: 3.37

Q: With MHSQDRYEFSSHITRGEHRFHMS [Y1M] as the variant, how does the protein stability index read?
A: 3.5

Q: For NHSQDRYEFSSHITRGEHRFHMS [Y1N], which protein stability index is on record?
A: 4.05

Q: With PHSQDRYEFSSHITRGEHRFHMS [Y1P] as the variant, how does the protein stability index read?
A: 3.84

Q: Which protein stability index does the source give for QHSQDRYEFSSHITRGEHRFHMS [Y1Q] here?
A: 3.99

Q: Which protein stability index does the source give for RHSQDRYEFSSHITRGEHRFHMS [Y1R] here?
A: 4.05

Q: With SHSQDRYEFSSHITRGEHRFHMS [Y1S] as the variant, how does the protein stability index read?
A: 4.05

Q: For THSQDRYEFSSHITRGEHRFHMS [Y1T], which protein stability index is on record?
A: 3.5

Q: With VHSQDRYEFSSHITRGEHRFHMS [Y1V] as the variant, how does the protein stability index read?
A: 3.57

Q: Which protein stability index does the source give for WHSQDRYEFSSHITRGEHRFHMS [Y1W] here?
A: 2.94

Q: With YASQDRYEFSSHITRGEHRFHMS [H2A] as the variant, how does the protein stability index read?
A: 2.5

Q: Which protein stability index does the source give for YCSQDRYEFSSHITRGEHRFHMS [H2C] here?
A: 2.04

Q: For YDSQDRYEFSSHITRGEHRFHMS [H2D], which protein stability index is on record?
A: 3.76

Q: With YESQDRYEFSSHITRGEHRFHMS [H2E] as the variant, how does the protein stability index read?
A: 3.98

Q: With YFSQDRYEFSSHITRGEHRFHMS [H2F] as the variant, how does the protein stability index read?
A: 2.51

Q: With YGSQDRYEFSSHITRGEHRFHMS [H2G] as the variant, how does the protein stability index read?
A: 3.11

Q: For YISQDRYEFSSHITRGEHRFHMS [H2I], which protein stability index is on record?
A: 1.94

Q: Which protein stability index does the source give for YKSQDRYEFSSHITRGEHRFHMS [H2K] here?
A: 2.01

Q: Which protein stability index does the source give for YLSQDRYEFSSHITRGEHRFHMS [H2L] here?
A: 2.02

Q: With YMSQDRYEFSSHITRGEHRFHMS [H2M] as the variant, how does the protein stability index read?
A: 2.48

Q: With YNSQDRYEFSSHITRGEHRFHMS [H2N] as the variant, how does the protein stability index read?
A: 3.72

Q: With YPSQDRYEFSSHITRGEHRFHMS [H2P] as the variant, how does the protein stability index read?
A: 3.48

Q: For YQSQDRYEFSSHITRGEHRFHMS [H2Q], which protein stability index is on record?
A: 2.4

Q: With YRSQDRYEFSSHITRGEHRFHMS [H2R] as the variant, how does the protein stability index read?
A: 3.37

Q: With YSSQDRYEFSSHITRGEHRFHMS [H2S] as the variant, how does the protein stability index read?
A: 3.36

Q: Which protein stability index does the source give for YTSQDRYEFSSHITRGEHRFHMS [H2T] here?
A: 3.16

Q: Which protein stability index does the source give for YVSQDRYEFSSHITRGEHRFHMS [H2V] here?
A: 2.58

Q: With YWSQDRYEFSSHITRGEHRFHMS [H2W] as the variant, how does the protein stability index read?
A: 2.41

Q: With YYSQDRYEFSSHITRGEHRFHMS [H2Y] as the variant, how does the protein stability index read?
A: 2.85

Q: Which protein stability index does the source give for YHAQDRYEFSSHITRGEHRFHMS [S3A] here?
A: 2.66

Q: With YHCQDRYEFSSHITRGEHRFHMS [S3C] as the variant, how does the protein stability index read?
A: 1.59

Q: With YHDQDRYEFSSHITRGEHRFHMS [S3D] as the variant, how does the protein stability index read?
A: 2.76

Q: For YHEQDRYEFSSHITRGEHRFHMS [S3E], which protein stability index is on record?
A: 2.56

Q: Which protein stability index does the source give for YHFQDRYEFSSHITRGEHRFHMS [S3F] here?
A: 1.76

Q: Which protein stability index does the source give for YHGQDRYEFSSHITRGEHRFHMS [S3G] here?
A: 2

Q: With YHHQDRYEFSSHITRGEHRFHMS [S3H] as the variant, how does the protein stability index read?
A: 2.14

Q: Which protein stability index does the source give for YHIQDRYEFSSHITRGEHRFHMS [S3I] here?
A: 2.73

Q: For YHKQDRYEFSSHITRGEHRFHMS [S3K], which protein stability index is on record?
A: 2.33

Q: Which protein stability index does the source give for YHLQDRYEFSSHITRGEHRFHMS [S3L] here?
A: 2.39

Q: For YHMQDRYEFSSHITRGEHRFHMS [S3M], which protein stability index is on record?
A: 1.95

Q: Which protein stability index does the source give for YHNQDRYEFSSHITRGEHRFHMS [S3N] here?
A: 1.61

Q: For YHPQDRYEFSSHITRGEHRFHMS [S3P], which protein stability index is on record?
A: 2.5

Q: Which protein stability index does the source give for YHQQDRYEFSSHITRGEHRFHMS [S3Q] here?
A: 2.54

Q: For YHRQDRYEFSSHITRGEHRFHMS [S3R], which protein stability index is on record?
A: 2.47

Q: For YHTQDRYEFSSHITRGEHRFHMS [S3T], which protein stability index is on record?
A: 2.13

Q: With YHVQDRYEFSSHITRGEHRFHMS [S3V] as the variant, how does the protein stability index read?
A: 2.15

Q: For YHWQDRYEFSSHITRGEHRFHMS [S3W], which protein stability index is on record?
A: 2.61

Q: With YHYQDRYEFSSHITRGEHRFHMS [S3Y] as the variant, how does the protein stability index read?
A: 1.63

Q: With YHSADRYEFSSHITRGEHRFHMS [Q4A] as the variant, how does the protein stability index read?
A: 2.13

Q: For YHSCDRYEFSSHITRGEHRFHMS [Q4C], which protein stability index is on record?
A: 1.44

Q: For YHSDDRYEFSSHITRGEHRFHMS [Q4D], which protein stability index is on record?
A: 2.75

Q: Which protein stability index does the source give for YHSEDRYEFSSHITRGEHRFHMS [Q4E] here?
A: 3.35

Q: With YHSFDRYEFSSHITRGEHRFHMS [Q4F] as the variant, how does the protein stability index read?
A: 2.33

Q: For YHSGDRYEFSSHITRGEHRFHMS [Q4G], which protein stability index is on record?
A: 2.3

Q: With YHSHDRYEFSSHITRGEHRFHMS [Q4H] as the variant, how does the protein stability index read?
A: 2.21

Q: For YHSIDRYEFSSHITRGEHRFHMS [Q4I], which protein stability index is on record?
A: 1.57

Q: With YHSKDRYEFSSHITRGEHRFHMS [Q4K] as the variant, how does the protein stability index read?
A: 2.21

Q: With YHSLDRYEFSSHITRGEHRFHMS [Q4L] as the variant, how does the protein stability index read?
A: 2.08

Q: For YHSMDRYEFSSHITRGEHRFHMS [Q4M], which protein stability index is on record?
A: 1.77

Q: With YHSNDRYEFSSHITRGEHRFHMS [Q4N] as the variant, how does the protein stability index read?
A: 1.89

Q: With YHSPDRYEFSSHITRGEHRFHMS [Q4P] as the variant, how does the protein stability index read?
A: 1.94

Q: With YHSRDRYEFSSHITRGEHRFHMS [Q4R] as the variant, how does the protein stability index read?
A: 1.94

Q: Which protein stability index does the source give for YHSSDRYEFSSHITRGEHRFHMS [Q4S] here?
A: 2.42

Q: Which protein stability index does the source give for YHSTDRYEFSSHITRGEHRFHMS [Q4T] here?
A: 1.63

Q: Which protein stability index does the source give for YHSVDRYEFSSHITRGEHRFHMS [Q4V] here?
A: 2.23

Q: Which protein stability index does the source give for YHSWDRYEFSSHITRGEHRFHMS [Q4W] here?
A: 2.22

Q: Which protein stability index does the source give for YHSYDRYEFSSHITRGEHRFHMS [Q4Y] here?
A: 1.77

Q: For YHSQARYEFSSHITRGEHRFHMS [D5A], which protein stability index is on record?
A: 1.5

Q: For YHSQCRYEFSSHITRGEHRFHMS [D5C], which protein stability index is on record?
A: 3.34

Q: For YHSQERYEFSSHITRGEHRFHMS [D5E], which protein stability index is on record?
A: 3

Q: With YHSQFRYEFSSHITRGEHRFHMS [D5F] as the variant, how does the protein stability index read?
A: 2.55

Q: For YHSQGRYEFSSHITRGEHRFHMS [D5G], which protein stability index is on record?
A: 2.85

Q: For YHSQHRYEFSSHITRGEHRFHMS [D5H], which protein stability index is on record?
A: 2.74

Q: Which protein stability index does the source give for YHSQIRYEFSSHITRGEHRFHMS [D5I] here?
A: 2.41

Q: For YHSQKRYEFSSHITRGEHRFHMS [D5K], which protein stability index is on record?
A: 3.72

Q: For YHSQLRYEFSSHITRGEHRFHMS [D5L], which protein stability index is on record?
A: 2.17

Q: For YHSQMRYEFSSHITRGEHRFHMS [D5M], which protein stability index is on record?
A: 3.27

Q: Which protein stability index does the source give for YHSQNRYEFSSHITRGEHRFHMS [D5N] here?
A: 1.84

Q: Which protein stability index does the source give for YHSQPRYEFSSHITRGEHRFHMS [D5P] here?
A: 2.04

Q: For YHSQRRYEFSSHITRGEHRFHMS [D5R], which protein stability index is on record?
A: 1.61

Q: Which protein stability index does the source give for YHSQSRYEFSSHITRGEHRFHMS [D5S] here?
A: 1.79

Q: With YHSQTRYEFSSHITRGEHRFHMS [D5T] as the variant, how does the protein stability index read?
A: 2.18

Q: Which protein stability index does the source give for YHSQVRYEFSSHITRGEHRFHMS [D5V] here?
A: 2.31

Q: Which protein stability index does the source give for YHSQWRYEFSSHITRGEHRFHMS [D5W] here?
A: 3.3

Q: For YHSQYRYEFSSHITRGEHRFHMS [D5Y], which protein stability index is on record?
A: 2.05

Q: For YHSQDAYEFSSHITRGEHRFHMS [R6A], which protein stability index is on record?
A: 2.22

Q: For YHSQDCYEFSSHITRGEHRFHMS [R6C], which protein stability index is on record?
A: 2.84

Q: With YHSQDDYEFSSHITRGEHRFHMS [R6D] as the variant, how does the protein stability index read?
A: 2.49
